Earlier results in patent US10543287.

Assays:
[1] = system: jak3 ZFN pair (FokI) (synthetic construct); experiment: cell_activity; details: CITED ref 58 somatic mutation rate in zebrafish embryos, mutant lines obtained here (Table 1), half-sites only highlighted in figure
[2] = system: rag2 ZFN pair (FokI) (synthetic construct); experiment: cell_activity; details: CITED ref 58 somatic mutation rate in zebrafish embryos, mutant lines obtained here (Table 1), half-sites only highlighted in figure

For “TATTTCTGCGCAGAAGTGGCCCCACCAAGCCTGCTGGAGGACATACAGAATTA (double strand) [jak3 ZFN target]”, the activity [1] is given as 1.4%.

In the case of “CCATGATCTTCTGCTCCAGGGGTGAAGGTGGACACTG (double strand) [rag2 ZFN target]”, the activity [2] is given as 7.7%.
